Measurements reported in the nanobody polyreactivity screen of Harvey et al. (2022).

Assay: yeast display, Sf9 membrane polyspecificity reagent, FACS + sequencing; frameworks hold sequencing errors
Method in brief: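 After 36–48 hours of galactose induction, yeast (Saccharomyces cerevisiae BJ5465) displaying a synthetic nanobody library were stained at 4 °C for 1 hour with 10% biotinylated, detergent-solubilized Sf9 membrane reagent. Streptavidin microbeads enriched the stained cells before FACS sorting into low and high (top ~1%) gates on anti-HA and streptavidin fluorescence. Each clone's polyreactivity label reflects its gate of origin.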

Sequence | polyreactivity (PSR sort gate)
QVQLVESGGGLVQAGGSLRLSCAASGSTFGYYAMGWYRQAPGKERELVASINWRGDSTYYADSVKGRFTISRDNAKNTVYLQMNSLKPEDTAVYYCNVKPSARGSPLYDYWGQGTQVTVSS | high polyreactivity
QVQLVESGGGLVQAGGSLRLICAASGSTFDGNVMGWYRQAPGKERELVADIDSGGSTNYADSVKGRFTISRDNAKNTVYLQMNSLKPEDTAFYYCNAEWDDSFIRWFRYRGNYWGQGTQVTVSS | low polyreactivity
QVQLVESGGGLVQAGGSLRLSCAASGSTFGRYAMVWYRQAPGKEREFVAGITGRGGSTYYADSVKGRFTISRDNAKNTVYLQMKSLKPEVNAVYYSAAGYRVGYRYDYWGQCTQVTVSS | high polyreactivity
QVQVVESGGGLVQAGGSLRLSCAASGRIFNYYAMGWYRQAPRKERELVAVISRTGVRTHYADSVKGRFTISRDNAKNTVYLQMNCLKPEDTAVYYCNADSYVFRYDYWGQGTQVTVSS | high polyreactivity
QVQLVESGGGLVQAGGSLRLSCAASGSTFGYYAMGWYRQAPGKERELVASISSRGGSTYYADSVKGRFTISRDNAKNTVYLQMNSLKPEDTAVYSCAARYGGFPVPGRYNYWGQGTQVTVSS | high polyreactivity
QVQLHESGGGLVQAGGSLRLSCAASGTISYAGPRGWYRQAPGKERECVAGIGVGSNTNYADSVKGRYTIIRDNAKNTVYLQMNILKPEVTAVYYCAVGGYAPLGRPYWGQGTQVTVSS | low polyreactivity
QVQLVESGGGLVQAGGSLRLSCAASGSIFYWYAMGWYRQAPGKERELVAAISRNGGNTYYADSVKGRFTISRDNAKNTVYLQMNSLKPEDTAVYYCAAQLFVRRWMDYWGQGTQVTVSS | low polyreactivity
QVQLVESGGGLVQAGGSLRLSCAASGSIFVTNAMGWYRPAPGKERELVAAIRWSGDSTYYADSVKGRFTISRDNAKNTVFLQMNSLKPEDTAVYYCAAESFRYIRLNYKYGDYYWGQGTQVTVSS | high polyreactivity
QVQLVESGGGLVQAGGSLRLSSAASGSTFQIYTMGWSRQAPGKESELVAAITNGGGSTYYADSVKGRFTISRDNAKNTVYLQMNSLKPEDTAVYYCAAEQRYPLIILYDDWGQGTQVTVSS | low polyreactivity
QVQLVESGGGLVQAGGSLRLSCAASGRIFLRYAMGGYRAAPGKERELVAAISTRGSSTYYADSVKGRFTNSRDNAKNTVYLQMNSLKPEDTAVYYCNKAWGPRRGVNVAFDYWGQGTQVTVSS | low polyreactivity
QVQLVESGGGLVQAGASLRLSCAASGIIVTQYAMGWYRQAPGKESEIVATFSSGGARTYYADSVKGRFTISRDNAKNTVYLQMKSQKPEDTAVYYCDARRYRGYSPPYDYCGQGTQVTVSS | high polyreactivity
QVQLVESGGGLVQAGGSLRLSCAASGRTFVEYAMGWYRQAPGKERELVADITISGGRTYYADSVKGRFTISRDNAKNTVYLQMNSLKPEDTAVYYCNAQSYLGVTHRGYIKNGYDYWGQGTQVTVSS | low polyreactivity
QVQLVESGGGLVQAGGSLRLSCAASGSTLQDNAMGWYRQAPGKERELVAAITTGSTTYADSVKGRFTISRDNAKNTVYLQMNSLKPEDTAVYYCNARVDWGWPGYEYDYWGQGTQVTVSS | low polyreactivity
QVQLVESGGGLVQAGGSLRLSCAASGSTLRFYAMGWYRPAPGKERELVAAISSSGSSTYYADSVKGRFTISRDNAKNTVYLQLNSLKPEDTAVYYCSGYGYWGQGTQVTVSS | high polyreactivity
QVQLVESGGGLVQAGGSLRLSCAASGSTFLYYAMGWYRQAPGKERELVAVIRLDAGRTYYADSVKGRFTISRDNAKNTVYFQMNSLKPEDTAVYYCAAKGSFRTYGGGNYWGQGTQVTVSS | high polyreactivity
QVQHVESGGGLVQAGGSLRLSCAASGSTFQMYAMGWYRQAPGKEMELVASISWSGGSTYYAVSVMGRFTISRDNAKNTFYLQMNSLKPEDTAVYYCKADFWWRYRPGAVFRSYGYWGQGTQVTVSS | low polyreactivity
QVQLVESGGGLVQAGGSLRLSCAASGILRANAIGWYRQAPGKERELVATINGDGATYADSVKGRFTISRDNAKNTVYLQLNSLKPEDTAVYYCAAGGGWVVKYDYWGQGTQVTVSS | low polyreactivity
QVQLVESGGGLVQAGGSLRLSCDASGSIFQAYAIGWYRQAPGKEREFVAVITWGGGSTSYADSVKGRFTISRDNAKNTVYLQMNSLKPEDTAVYYCNADSQEWIWLYEGYDYWGQGTQVTVSS | low polyreactivity
QVHHVESGGGLVQAGGSLRLSCAASGGTFYYNAMGWYRQAPGKERELVAAIDGSGGTTYYADSVKGRFTISRDNAKNTVYLQMNSLKPEDTAVYYCAAAGSPSVYGYGYWGQGTQVTVSS | low polyreactivity
QVQLVESGGGLVHAGGSLRLSCAASGITLVRYAMGWYRQAPGKERELVAAISSSGGSTYYADSVKGRFTISRDNAKNTVYLQMNSLKPEDTAVYYCNAYVHSRRVEFNYWGQGTQVTVSS | high polyreactivity
QVQLVESGGGLVQAGGSLRLSCAASGNIFYKNTMGWYRQAPGKERELVAAISVSGGGTYYADSVKGRFTISRDNAKNTVYLQMNSLKPEDTAVYYCAASHRRSGGQPRYYYWGQGTQVSVSS | high polyreactivity
QVQLVESGGGLVQAGGSLRLSCAASGSTFNDYDMGWYRQAPGNERELVAAISSGGSTYYADSVKGRFTISRDNAKNTVYLQMNSLKPEDTAVYYCAAVLGVWGGVGSEGDFWGQGTQVTVSS | low polyreactivity

Sequence | polyreactivity (PSR sort gate)
QVQLVESGGGLVQAGGSLRLSCAASGRILKYYAMGWYRQAPGKERELVAAISGSSGSTYYADSVKGRFTISRDNAKNTVYLQMNSLKPEDTAVYYCAAQGRDSTPHGYWGQGTQVTVSS | high polyreactivity
QVQLVESGGGLVQAGGSLRLSCAASGSTITGNTMGWYRQAPGKERELVAAITNGGSTYYADSVKGRFTISRDNAKNTVYLQMNSLKPEDTAVYYCAAESTFYGYDYWGQGTQVTVSS | high polyreactivity
QVQLVESGGGLVQAGGSLRISCAASGFTFSSYAMGRSRPAPGKERELVAGITIDGNTYYADSVKGRFTISRDNAKNTVYLQMNSLKPEDTAVYYCAAVAYYYGYDYWGQGTQVTVSS | low polyreactivity
QVQLVESAGGLVQAGGSLRLSCAASGRTFAYNAMGWYRQAPGKERELVADITSGGSTYYADSVKWRFTISRDNAKNTVYLQMNSLKPEDTAVYYCNKLYRGGYGYWGQGTQVTVSS | high polyreactivity
QVQLVESGAGLVQAGGSLRLSCAASGLTIYVNAMGWYGQAPGKERELVATISGSGSTNYADSEKGRFTISRDDAKNTVYLQMNSLKPEDTAVYYCNAGWAQDPSNYWGQGTQVNVSS | low polyreactivity
QVQLVESGGGLVQAGGSLRLSCAASGSIFYGYAMGWYRQAPGKERELVAAISSSGGTTYYADSVKGRFTISRDNAKNTVYLQMNSLKPEDTAVYYCAALGGYYYRTRYNGDYWGHGTQVTVSS | high polyreactivity
QVQLVESGGGLVQAGGSLRLSCAASGRIFGDNDMGWSRQAPGKDRELVAGIRWRADRTYYADSVKGRFTISRDNAKNTVYLQMNSLKPEDTAVYYCNVGSFTGHSYGFGYWGQGTQVTVSS | low polyreactivity
QVQLVETGGGLVQAGGTLRLSCADSGFTFHQYTMGWYIPAPGKERELVAAITGTGDTYYADSVKGRFTISRDNAKNTVYLQMNSLKPEDTAVYYCNALYVYRSVANFDYWGQGTQVTVSS | high polyreactivity
QVQLVESGGGLVQAGGSLRLSCAASGLTINGNTMGLYRQAPGKERELVAVIDWSGGSTYYADSVKGRFTISRDNAKNTVYLQMNSLKPEDTAVYYCNAETRDPILYGEYDYWGQGTQVTVSS | low polyreactivity
QVQLVESGGGLVQAGGSLRLSCAASGSIFPRNAMGWYRQAPGKERELVAAIRKSGGSTYYADSVKGRFTISRDNAKNTVYLQMNSLKPEDTAVYYCAKPYSVCCWQSPIYNYWGQGTQVTVSS | low polyreactivity
QVQLVESGGGLVQAGGSLRLSCAASGSIFSSYAMGWYRQAPGKERELVAAITGRDGSTYYADSVKGRFTISRDNAKNTVYLQMNILKPEDTAVYYCAASRFYFPRTFGGYPKLASYDYWGQGTQVTVSS | low polyreactivity
QVQLVESGGGLVQAGGSLRLSCAASGSILNLNAMGWYRQAPGKERELVAAIRGGGRTNYADSVKGRFTISRDNAKNTVYLQMNSLKPEDTAVYYCAARITRPLTGYDYWGQGTQVTVSS | high polyreactivity
QVQLVESGGGIVQAGGSLRLSCAASGLTFQVNAMGWYRQAPGKERELVAGITFSGGSTYYADSVKGRFTISRDNAKNTVYLQMNSLKPEDTAVYYCAADARFYAYYYWGQGTQVTVSS | low polyreactivity
QLQLVESGGGLVQAGGSLRLSCAASGSTFTFNAMGWYRQAPGKERELVATISRGGSTSYADSVKGRFTISRDNAKNTVYLQMNSLNPEDTAVYYCAAVLYPSIYGFAGGKTDYDYWGQGTQVTVSS | low polyreactivity
QVQLVESGGGLVQAGGSLRLSCADSARILYHYAIGWYRQAHGKETELVAAITRGGGTNYADSVKGRFTISRDNAKNTVYLQMNSLKPEDTAVYYCNADRFIVTRSRRGDYWGQGTQVTVSS | low polyreactivity
QVQLVESGGGLVQAGGSLRLSCAASGLTFIFNAMGWYRQAPGKERELVADISSGVNTNYADSVKGRFTISRDNAKNTVYLQMNSLKPEDTAVYYCNARRYWLRYDYWGQGTQVTVSS | low polyreactivity
QVQLVESGGGLVQAGGSLRLSCAASGITFAFYAMGWYRQAPGKERELVAAISWSGTRTYYADSVKGRFTISRDNAKNTVYLQMNSLKPEDTAVYYCAADYQAGYKMFDYWGQGTQVTVSS | low polyreactivity
QVQLVESGGGLVQAGGSLRLSCAASGLTFRWYAMGWYRRAPGKERELVAAISSGGSTNYADSVKGRFTISRDNAKNTVYLQMNSLKPEDTAVYYCNAKGRPWFKYDYWGQGTQVTVSS | high polyreactivity
QVQLVESGGGLVQAGGSLRLSCAASGRIFNQYGMGWYRQAPGKERELVASITGSGGTTYYADSVKGRFTISRDNAKNTVYLQMNSLKPEDTAVYYCAAVFYGFVGYYNEDYWGQGTQVTVSS | low polyreactivity
QVQLVESGGGLVQAGGSLRLSCAATGNIFADYAKGWYRQAPGKERELVAAITWSGDDTYYADSVKGRFTISRDNAKNTVYLQMNSLKPEDTAVYYCAAGYWRTSVDFDYWGQCTQVTVSS | low polyreactivity
QVQLVESGGGLVQAGGSLRLSCAASGFIFDRYAMGWYRQAPGKERELVAAISSGGSTYYADSVKGRFTISRDNAKNTVYLQMNSLKPEDTAVYYCAAESWLKFIYEYDYWGQGTQVTVSS | low polyreactivity
